Drawing on patent CN114106163A (ANYUAN MEDICINE SCIENCE AND TECH SHANGHAI LIMITED COMPANY, dated 2022), this text covers IC50 and EC50 for one molecule.

For one test, the target named is T1, 刺突S蛋白-鼠Fc融合蛋白 (S-mFc) (SARS-CoV-2; mouse, UniProt P0DTC2 14-1213).
T1 construct: domain: S蛋白全长区段
The test can be described thus: FACS, blocking of S-mFc binding to 293T-ACE2 cells.

In test [1] the target is T2, SARS-CoV-2 S1蛋白 (ACRO Biosystems) (SARS-CoV-2, UniProt P0DTC2 16-685).
T2 construct: domain: S1
The test can be described thus: competition ELISA, S1 coated, HRP-hACE2-Fc as competitor.

B1: 人源化抗体hS1B-30-3 (humanized antibody hS1B-30-3) (antibody, V domains shown)
VH: EVQLVESGGGLVQPGGSLRLSCAASGFTFSDAWMDWVRQAPGKGLDWVAQIRNKANSHATNYADSVKGRFTISRDDSKNSVYLQMNSLKTEDTAVYYCIRGLTGYVLDYWGQGTTVTVSS
VL: DIQMTQSPSSLSASVGDRVTITCKASQNVRTAVAWYQQKPGQSPKALIFLASNRHTGVPDRFSGSGSGTDFTLTISSLQPEDFATYFCLQHWNYPLTFGGGTKVEIKR
Turning to B1, in the test with 刺突S蛋白-鼠Fc融合蛋白 (S-mFc), the IC50 is 0.00691 µg/mL. The molecule also displayed an EC50 in test [1] of 0.0331 µg/mL.
